Experimental data reported in publication PMC10440475 (Heliyon, 2023).
Values joined by “and” are separate entries in the source; they are usually repeats but may differ in a detail not shown here. Equal entries are not always repeated.

Biological target: the molecule itself
Experiment: PFO-PAGE

B1: eGFP-fused Shaker potassium channel protein (natural protein)
chain: MAAVAGLYGLGEDRQHRKKQQQQQQHQKEQLEQKEEQKKIAERKLQLREQQLQRNSLDGYGSLPKLSSQDEEGGAGHGFGGGPQHFEPIPHDHDFCERVVINVSGLRFETQLRTLNQFPDTLLGDPARRLRYFDPLRNEYFFDRSRPSFDAILYYYQSGGRLRRPVNVPLDVFSEEIKFYELGDQAINKFREDEGFIKEEERPLPDNEKQRKVWLLFEYPESSQAARVVAIISVFVILLSIVIFCLETLPEFKHYKVFNTTTNGTKIEEDEVPDITDPFFLIETLCIIWFTFELTVRFLACPNKLNFCRDVMNVIDIIAIIPYFITLATVVAEEEDTLNLPKAPVSPQDKSSNQAMSLAILRVIRLVRVFRIFKLSRHSKGLQILGRTLKASMRELGLLIFFLFIGVVLFSSAVYFAEAGSENSFFKSIPDAFWWAVVTMTTVGYGDMTPVGVWGKIVGSLCAIAGVLTIALPVPVIVSNFNYFYHRETDQEEMQSQNFNHVTSCPYLPGTLGQHMKKSSLSESSSDMMDLDDGVESTPGLTETHPGRSAVAPFLGAQQQQQQPVASSLSMSIDKQLQHPLQQLTQTQLYQQQQQQQQQQQNGFKQQQQQTQQQLQQQQSHTINASAAAATSGSGSSGLTMRHNNALAVSIETDV
- stoichiometry N: 2 and 4
